The values that follow come from article doi:10.1101/2020.09.08.280818.

A word on the Kd: it is a measure of binding affinity in units of concentration. Low readings indicate a tighter complex, high ones a looser complex. For orientation: stoichiometry N means a count of units in the complex or per binding partner.

The target in experiment [1] is human ACE2 peptidase domain (PD), Avi-tagged (human). Put plainly: BLI.
In experiment [2] the target is SARS-CoV-2 spike glycoprotein stabilised in the prefusion conformation (P2 S), TwinStrep-tagged (SARS-CoV-2) (UniProt P0DTC2). Description: cryo-EM structure.

In turn, “SARS-CoV-2 spike glycoprotein stabilised in the prefusion conformation (P2 S), TwinStrep-tagged (from UniProt P0DTC2 14-1273) (natural protein)” showed a dissociation constant (Kd) in experiment [1] of 1 nM. Moreover, the stoichiometry N in experiment [2] came out at 3.
